These results are taken from article PMC3554631, “Structural Basis of a Histone H3 Lysine 4 Demethylase Required for Stem Elongation in Rice” (PLoS Genetics, 2013).

Experiment [1] has as its target FA-J3NCZ, FLAG:HA-tagged JmjN-JmjC-zinc finger region of JMJ703 (amino acids 113 to 700) (rice) (UniProt Q53WJ1). In words: SPR; J3NCZ (FA-J3NCZ) with different concentrations of peptide; set-up for this protein not told in the methods.
The target of experiment [2] is c-JMJ703, catalytic core domain of JMJ703 (amino acids 139 to 498) (rice) (UniProt Q53WJ1). The experiment is described as follows: SPR; BIAcore 3000, 25°C; c-JMJ703 amine-coupled to a CM5 chip; peptides injected at various concentrations at 10 µL/min for 2 min in 10 mM HEPES pH 7.5, 150 mM NaCl, 0.005% Tween20; reference flow cell subtracted. Background: In SPR one partner is held on a chip, and binding of the other changes the refractive index at the surface.
c-JMJ703, catalytic core domain of JMJ703 (amino acids 139 to 498) (rice), sequence (Q53WJ1 139-498): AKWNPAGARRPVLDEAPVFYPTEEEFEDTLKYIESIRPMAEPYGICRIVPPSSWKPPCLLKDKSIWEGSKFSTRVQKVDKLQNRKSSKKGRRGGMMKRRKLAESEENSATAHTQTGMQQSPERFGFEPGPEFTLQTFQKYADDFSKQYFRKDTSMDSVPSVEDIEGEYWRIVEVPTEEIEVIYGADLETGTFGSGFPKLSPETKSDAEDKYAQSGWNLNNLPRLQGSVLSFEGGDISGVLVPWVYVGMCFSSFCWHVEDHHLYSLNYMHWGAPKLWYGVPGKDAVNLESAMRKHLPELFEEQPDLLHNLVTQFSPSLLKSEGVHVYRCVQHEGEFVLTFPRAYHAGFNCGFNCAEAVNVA

The test system of experiment [3] is H3K4me3. In words: H3K4 demethylation assay in tobacco cells of JMJ703 substitution mutants, H3K4me3. It counts as cell-based. The conditions noted are these: mutant expressed transiently in tobacco cells, immunostaining of nuclei, at least 30 nuclei per transfection. On the procedure: (§1) The cDNA fragment of the J3NCZ region was amplified using primers FAJ3NCZ-F and FAJ3NCZ-R and then cloned into pFA121 vector modified from pBI121 (GenBank: AF485783.1), in which GUS was replaced by 2×FLAG∶2×HA tag. The pFA121-J3NCZ plasmid was transferred into Agrobacterium tumefaciens strain EHA105 cells for tobacco infection with the help of Agrobacterium cells harboring P19 plasmids. For in vivo histone demethylation assay, tobacco infection and nuclei isolation were performed as previously described. The immunostaining protocol was modified from http://sites.bio.indiana.edu/~pikaardlab. Briefly, the nucleus solution was placed on a poly-lysine coated slide, air dried, and then refixed with 4% formaldehyde in KPBS (1.28 M NaCl, 20 mM KCl, 80 mM Na2HPO4, 20 mM KH2PO4, pH7.2) containing 1% Triton X-100 for 20 min. After 3 washes with KPBS-1% Triton, slides were blocked with blocking solution (1% BSA in KPBS-1% Triton) and incubated at 37°C for 30 min. The blocking solution was washed off with KPBS-1% Triton and the slides were incubated with both anti-HA and histone méthylation specific antibodies diluted in blocking solution to 1∶300 at 4°C overnight. After washing with KPBS, slides were blocked and incubated with fluorescent-labeled antibodies at 37°C for 2 h. After washing with KPBS thrice, nuclei were stained with 5 µg/mL 4,6-diamidino-2-phenylindole (DAPI), coated with a drop of VECTASHIELD Mounting Medium (H-1000, Vector Laboratories), and then covered with a coverslip followed by confocal microscope (Leica) detection. In vitro histone demethylation assays were performed as previously described. FA-J3NCZ was purified after overexpression with Anti-FLAG M2 magnetic beads according the manufacturer's instruction (Sigma).
(§2) Supplementary file pgen.1003239.s006.tif: Figure S6 Demethylation assays for JMJ703 substitution mutants that have been produced based on the structural data. The mutant names are labeled at the top left corner of each panel. Image panels from left to right are staining by DAPI, anti-HA and anti-methylated histones, respectively. Bar = 10 µm. At least 30 nuclei that expressed JMJ703 per transfection were observed and imaged. (TIF) Click here for additional data file.

Experiment [4] deals with H3K4me1. In words: H3K4 demethylation assay in tobacco cells of JMJ703 substitution mutants, H3K4me1. Type of experiment: cell-based. The conditions noted are these: mutant expressed transiently in tobacco cells, immunostaining of nuclei, at least 30 nuclei per transfection. On the procedure: as §1, §2
Experiment [5] concerns H3K4me2. The experiment is described as follows: H3K4 demethylation assay in tobacco cells of JMJ703 substitution mutants, H3K4me2. It counts as cell-based. The note with it: mutant expressed transiently in tobacco cells, immunostaining of nuclei, at least 30 nuclei per transfection. The procedure: as §1, §2

Broadly, the Kd is the concentration at which binding is half-saturated. The low end stands for higher affinity, the high end for lower affinity. As for H3K4me2 peptide, the results for the Kd in experiment [1] and in experiment [2] were 15.1 µM and 19.3 µM, respectively.
The molecule H3K4me0 peptide returned a Kd in experiment [2] of 76.6 µM.
H3K4me1 peptide: the Kd in experiment [1] stood at 12.6 µM; in experiment [2], 28.9 µM.

B1: Y321A: JMJ703 substitution mutant, α-ketoglutaric acid-binding residue (protein, UniProt Q53WJ1 1-1238, looked up, variant Y321A)
Lysine-specific demethylase …: MMGVTTTLNEDTEPSIPPGFGPFATLPLWGIHNDAKPAVTHSTPVQALQSIRKDSEECQPSAAVSRSDTPCSTSGTQTCRKSLRNRPPIDYSRFEHISDEDSDVEIVEKDVSSTRRRQQLPKGVLRGCAECSDCQKVIAKWNPAGARRPVLDEAPVFYPTEEEFEDTLKYIESIRPMAEPYGICRIVPPSSWKPPCLLKDKSIWEGSKFSTRVQKVDKLQNRKSSKKGRRGGMMKRRKLAESEENSATAHTQTGMQQSPERFGFEPGPEFTLQTFQKYADDFSKQYFRKDTSMDSVPSVEDIEGEYWRIVEVPTEEIEVIAGADLETGTFGSGFPKLSPETKSDAEDKYAQSGWNLNNLPRLQGSVLSFEGGDISGVLVPWVYVGMCFSSFCWHVEDHHLYSLNYMHWGAPKLWYGVPGKDAVNLESAMRKHLPELFEEQPDLLHNLVTQFSPSLLKSEGVHVYRCVQHEGEFVLTFPRAYHAGFNCGFNCAEAVNVAPIDWLPIGHNAVELYREQARKITISHDKLLLGAAREAIRAQWDILFLKRNTADNMRWKSICGADSTIFKALKARIETELVQRKTLGVPAQSRKMDAEFDSIDRECALCYYDLHLSASGCPCCPEKYACLVHAKQLCSCDWDKRFFLFRYDVNELNILADALGGKLSAIHRWGVSDLGLSLSSCVKREKVQDSKTVRRLTDGPRRSYMSQASAVSLVSSSTSNEQKDEGNKIMKIASPQTNNVCPSVEQRKSENISPLKEPCVRNELSCTTNSDSNGLQYNGGLGGHKGSAPGLPVSSSPSFSSNVATRPISTSSVSMKIVQGLVASKSCIQASSRTGDSRSLLGEHHNRSPAMIHDGTNMKSSLESSNNSCRLIASDYNATPCHSSKDQVLVTPGTNASVVTLKDSSQVHSASSQQFVRTGPWTQSASHEASSPSTSALKPSLDPPAMKNLYGGFTQGSAHPGPPSFSNQQPNDGRLQRTSESLPGVEARARGHPTVTAQPALEIHSRNGGAQKGPRIANVVHRFKCSVEPLEIGVVLSGRLWSSSQAIFPKGFRSRVKYFSIVDPIQMAYYISEILDAGMQGPLFMVKLENCPGEVFINLSPTKCWNMVRERLNMEIRRQLNMGKSNLPTLQPPGSVDGLEMFGLLSPPIVQAIWARDRDHICTEYWRSRPHVLIEDPNNRHMLSQGPPLLALRGLIQRANRDELQVLRSLMTNSNNLDDSSRQQAAHIIEEEIAKQLC
For the molecule B1, the H3K4me3 demethylation activity result in experiment [3] was “yes”. In experiment [4], the H3K4me1 demethylation activity result is “no”. Besides, in experiment [5], the H3K4me2 demethylation activity result is given as “yes”.

B2: K412A: JMJ703 substitution mutant, α-ketoglutaric acid-binding residue (protein, UniProt Q53WJ1 1-1238, looked up, variant K412A)
Lysine-specific demethylase …: MMGVTTTLNEDTEPSIPPGFGPFATLPLWGIHNDAKPAVTHSTPVQALQSIRKDSEECQPSAAVSRSDTPCSTSGTQTCRKSLRNRPPIDYSRFEHISDEDSDVEIVEKDVSSTRRRQQLPKGVLRGCAECSDCQKVIAKWNPAGARRPVLDEAPVFYPTEEEFEDTLKYIESIRPMAEPYGICRIVPPSSWKPPCLLKDKSIWEGSKFSTRVQKVDKLQNRKSSKKGRRGGMMKRRKLAESEENSATAHTQTGMQQSPERFGFEPGPEFTLQTFQKYADDFSKQYFRKDTSMDSVPSVEDIEGEYWRIVEVPTEEIEVIYGADLETGTFGSGFPKLSPETKSDAEDKYAQSGWNLNNLPRLQGSVLSFEGGDISGVLVPWVYVGMCFSSFCWHVEDHHLYSLNYMHWGAPALWYGVPGKDAVNLESAMRKHLPELFEEQPDLLHNLVTQFSPSLLKSEGVHVYRCVQHEGEFVLTFPRAYHAGFNCGFNCAEAVNVAPIDWLPIGHNAVELYREQARKITISHDKLLLGAAREAIRAQWDILFLKRNTADNMRWKSICGADSTIFKALKARIETELVQRKTLGVPAQSRKMDAEFDSIDRECALCYYDLHLSASGCPCCPEKYACLVHAKQLCSCDWDKRFFLFRYDVNELNILADALGGKLSAIHRWGVSDLGLSLSSCVKREKVQDSKTVRRLTDGPRRSYMSQASAVSLVSSSTSNEQKDEGNKIMKIASPQTNNVCPSVEQRKSENISPLKEPCVRNELSCTTNSDSNGLQYNGGLGGHKGSAPGLPVSSSPSFSSNVATRPISTSSVSMKIVQGLVASKSCIQASSRTGDSRSLLGEHHNRSPAMIHDGTNMKSSLESSNNSCRLIASDYNATPCHSSKDQVLVTPGTNASVVTLKDSSQVHSASSQQFVRTGPWTQSASHEASSPSTSALKPSLDPPAMKNLYGGFTQGSAHPGPPSFSNQQPNDGRLQRTSESLPGVEARARGHPTVTAQPALEIHSRNGGAQKGPRIANVVHRFKCSVEPLEIGVVLSGRLWSSSQAIFPKGFRSRVKYFSIVDPIQMAYYISEILDAGMQGPLFMVKLENCPGEVFINLSPTKCWNMVRERLNMEIRRQLNMGKSNLPTLQPPGSVDGLEMFGLLSPPIVQAIWARDRDHICTEYWRSRPHVLIEDPNNRHMLSQGPPLLALRGLIQRANRDELQVLRSLMTNSNNLDDSSRQQAAHIIEEEIAKQLC
For the molecule B2, the H3K4me3 demethylation activity entry in experiment [3] is “no”. Moreover, in experiment [4], the H3K4me1 demethylation activity result is “no”. Besides, the H3K4me2 demethylation activity result in experiment [5] is on record as “no”.

B3: N404A: JMJ703 substitution mutant, α-ketoglutaric acid-binding residue (protein, UniProt Q53WJ1 1-1238, looked up, variant N404A)
Lysine-specific demethylase …: MMGVTTTLNEDTEPSIPPGFGPFATLPLWGIHNDAKPAVTHSTPVQALQSIRKDSEECQPSAAVSRSDTPCSTSGTQTCRKSLRNRPPIDYSRFEHISDEDSDVEIVEKDVSSTRRRQQLPKGVLRGCAECSDCQKVIAKWNPAGARRPVLDEAPVFYPTEEEFEDTLKYIESIRPMAEPYGICRIVPPSSWKPPCLLKDKSIWEGSKFSTRVQKVDKLQNRKSSKKGRRGGMMKRRKLAESEENSATAHTQTGMQQSPERFGFEPGPEFTLQTFQKYADDFSKQYFRKDTSMDSVPSVEDIEGEYWRIVEVPTEEIEVIYGADLETGTFGSGFPKLSPETKSDAEDKYAQSGWNLNNLPRLQGSVLSFEGGDISGVLVPWVYVGMCFSSFCWHVEDHHLYSLAYMHWGAPKLWYGVPGKDAVNLESAMRKHLPELFEEQPDLLHNLVTQFSPSLLKSEGVHVYRCVQHEGEFVLTFPRAYHAGFNCGFNCAEAVNVAPIDWLPIGHNAVELYREQARKITISHDKLLLGAAREAIRAQWDILFLKRNTADNMRWKSICGADSTIFKALKARIETELVQRKTLGVPAQSRKMDAEFDSIDRECALCYYDLHLSASGCPCCPEKYACLVHAKQLCSCDWDKRFFLFRYDVNELNILADALGGKLSAIHRWGVSDLGLSLSSCVKREKVQDSKTVRRLTDGPRRSYMSQASAVSLVSSSTSNEQKDEGNKIMKIASPQTNNVCPSVEQRKSENISPLKEPCVRNELSCTTNSDSNGLQYNGGLGGHKGSAPGLPVSSSPSFSSNVATRPISTSSVSMKIVQGLVASKSCIQASSRTGDSRSLLGEHHNRSPAMIHDGTNMKSSLESSNNSCRLIASDYNATPCHSSKDQVLVTPGTNASVVTLKDSSQVHSASSQQFVRTGPWTQSASHEASSPSTSALKPSLDPPAMKNLYGGFTQGSAHPGPPSFSNQQPNDGRLQRTSESLPGVEARARGHPTVTAQPALEIHSRNGGAQKGPRIANVVHRFKCSVEPLEIGVVLSGRLWSSSQAIFPKGFRSRVKYFSIVDPIQMAYYISEILDAGMQGPLFMVKLENCPGEVFINLSPTKCWNMVRERLNMEIRRQLNMGKSNLPTLQPPGSVDGLEMFGLLSPPIVQAIWARDRDHICTEYWRSRPHVLIEDPNNRHMLSQGPPLLALRGLIQRANRDELQVLRSLMTNSNNLDDSSRQQAAHIIEEEIAKQLC
Regarding B3, the H3K4me3 demethylation activity result in experiment [3] is listed as “yes”. In experiment [4], the H3K4me1 demethylation activity entry is listed as “yes”. In experiment [5], the H3K4me2 demethylation activity result is “yes”.
